Data as given in IntAct's records for PubMed 10393177.

B1: Stress-activated protein kinase jnk-1 (Caenorhabditis elegans), Q8WQG9 (parent)
chain: MEERLSTTSSYPSHPGRSVEEDHNTLLASSSISSIIRGTRGHLNNFIESVGNWLVPSSSGRDDDAVSLDSCQSVYSPVRHHINSGTGGGILMEPSSIHVPENYYSVTIGEAQMVVLKRYQNLRLIGSGAQGIVCSAFDTVRNEQVAIKKLSRPFQNVTHAKRAYRELKLMSLVNHKNIIGILNCFTPQKKLDEFNDLYIVMELMDANLCQVIQMDLDHERLSYLLYQMLCGIRHLHSAGIIHRDLKPSNIVVRSDCTLKILDFGLARTAIEAFMMTPYVVTRYYRAPEVILGMGYKENVDVWSIGCIFGELIRGRVLFPGGDHIDQWTRIIEQLGTPDRSFLERLQPTVRNYVENRPRYQATPFEVLFSDNMFPMTADSSRLTGAQARDLLSRMLVIDPERRISVDDALRHPYVNVWFDEIEVYAPPPLPYDHNMDVEQNVDSWREHIFRELTDYARTHDIYS

Variants of: B1
Conditions: with jun_human JUN
In the case of K148R, the “effect of a mutation on the interaction” value is reported as “disrupting interaction”.
